In patent publication US20200354457A1 (Hoffmann-La Roche, published 2020):
Values joined by “and” are separate entries in the source; they are usually repeats but may differ in a detail not shown here. Equal values may be shown once.

Legend:
[1] = target: T1, biotinylated MCSP antigen (amino acids 1553 to 2184 of matured melanoma-associated chondroitin sulfate … (Homo sapiens (Human), UniProt Q6UVK1 1582-2213, limits assumed, biotin on the C-terminal avi-tag)); experiment: SPR (ProteOn XPR36), biotinylated MCSP captured on NLC chip, purified aVH as analyte, 25 C
T1 construct: The entry may include the leader; also called recombinant MCSP
T1 sequence: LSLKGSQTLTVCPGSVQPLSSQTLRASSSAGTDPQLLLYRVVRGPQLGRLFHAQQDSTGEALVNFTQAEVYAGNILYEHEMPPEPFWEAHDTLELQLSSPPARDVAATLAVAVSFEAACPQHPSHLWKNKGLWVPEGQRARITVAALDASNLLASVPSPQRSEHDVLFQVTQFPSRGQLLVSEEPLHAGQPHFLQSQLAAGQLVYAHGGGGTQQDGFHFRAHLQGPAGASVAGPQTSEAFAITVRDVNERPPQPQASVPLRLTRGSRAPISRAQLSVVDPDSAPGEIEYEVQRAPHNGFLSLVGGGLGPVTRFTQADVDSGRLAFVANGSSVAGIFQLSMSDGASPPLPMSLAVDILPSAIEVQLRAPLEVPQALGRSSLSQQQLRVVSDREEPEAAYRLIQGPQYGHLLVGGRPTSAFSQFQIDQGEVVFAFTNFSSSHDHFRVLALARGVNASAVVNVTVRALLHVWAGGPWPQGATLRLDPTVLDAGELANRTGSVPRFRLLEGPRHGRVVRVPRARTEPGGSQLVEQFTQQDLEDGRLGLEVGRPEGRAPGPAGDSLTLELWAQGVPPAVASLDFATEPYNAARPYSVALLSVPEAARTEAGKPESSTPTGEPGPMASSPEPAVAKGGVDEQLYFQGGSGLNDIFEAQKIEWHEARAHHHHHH

[2] = target: T2, Lag3 on Lag3+ NFAT Jurkat effector cells (Promega #CS194801); experiment: cell-based or functional assay
[3] = target: T2, Lag3 on Lag3+ NFAT Jurkat effector …; experiment: cell-based or functional assay; remark: listed apart in the source
[4] = target: T3, murine LAG3-Fc antigen (R&D Systems, 3328-L3-050) (murine, UniProt Q61790 24-442); experiment: ELISA using murine LAG3-Fc antigen
T3 construct: Bought reagent
T3 sequence (looked up): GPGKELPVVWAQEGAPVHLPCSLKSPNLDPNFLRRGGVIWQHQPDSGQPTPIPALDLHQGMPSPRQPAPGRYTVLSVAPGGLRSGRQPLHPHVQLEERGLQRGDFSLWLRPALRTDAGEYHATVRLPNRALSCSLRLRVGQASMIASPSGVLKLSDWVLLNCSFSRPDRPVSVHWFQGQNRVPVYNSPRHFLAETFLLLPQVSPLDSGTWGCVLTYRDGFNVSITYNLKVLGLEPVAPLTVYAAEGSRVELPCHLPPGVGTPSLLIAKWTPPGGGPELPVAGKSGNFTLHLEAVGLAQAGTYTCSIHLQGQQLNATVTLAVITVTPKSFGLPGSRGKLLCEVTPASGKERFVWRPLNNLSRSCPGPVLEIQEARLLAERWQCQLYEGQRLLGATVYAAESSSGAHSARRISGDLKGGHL

[5] = target: T4, human LAG3 on recombinant CHO cells (human, UniProt P18627 23-525); experiment: cell ELISA on CHO cells expressing human LAG3;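 also: bivalent Fc-format binders titrated in threefold steps from 6 µg/mL, incubated with the cells 2 h at 4 °C, bound antibody detected by HRP-coupled anti-human IgG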
T4 construct: whole, on cells; also called Lag3 cells; recombinant CHO cells expressing Lag3
T4 sequence (looked up): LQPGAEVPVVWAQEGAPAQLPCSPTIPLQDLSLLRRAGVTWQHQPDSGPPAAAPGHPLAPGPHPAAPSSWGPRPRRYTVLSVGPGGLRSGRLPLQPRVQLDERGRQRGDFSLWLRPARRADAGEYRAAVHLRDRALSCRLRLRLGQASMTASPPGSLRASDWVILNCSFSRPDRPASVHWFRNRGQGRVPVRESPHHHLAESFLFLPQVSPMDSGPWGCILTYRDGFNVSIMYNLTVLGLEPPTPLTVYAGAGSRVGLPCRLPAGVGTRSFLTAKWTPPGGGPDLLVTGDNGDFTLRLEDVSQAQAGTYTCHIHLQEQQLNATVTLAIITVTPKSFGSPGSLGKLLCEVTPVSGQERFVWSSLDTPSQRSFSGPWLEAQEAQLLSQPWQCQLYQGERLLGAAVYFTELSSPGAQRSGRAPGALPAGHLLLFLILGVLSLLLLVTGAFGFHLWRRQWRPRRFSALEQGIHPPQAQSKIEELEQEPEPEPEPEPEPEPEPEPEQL

[6] = target: T5, recombinant human LAG3 Fc Chimera Protein (R&D Systems, 2319-L3) (human, UniProt P18627 23-450); experiment: ELISA, plate coated with human LAG3 Fc chimera
T5 construct: Bought reagent
T5 sequence (looked up): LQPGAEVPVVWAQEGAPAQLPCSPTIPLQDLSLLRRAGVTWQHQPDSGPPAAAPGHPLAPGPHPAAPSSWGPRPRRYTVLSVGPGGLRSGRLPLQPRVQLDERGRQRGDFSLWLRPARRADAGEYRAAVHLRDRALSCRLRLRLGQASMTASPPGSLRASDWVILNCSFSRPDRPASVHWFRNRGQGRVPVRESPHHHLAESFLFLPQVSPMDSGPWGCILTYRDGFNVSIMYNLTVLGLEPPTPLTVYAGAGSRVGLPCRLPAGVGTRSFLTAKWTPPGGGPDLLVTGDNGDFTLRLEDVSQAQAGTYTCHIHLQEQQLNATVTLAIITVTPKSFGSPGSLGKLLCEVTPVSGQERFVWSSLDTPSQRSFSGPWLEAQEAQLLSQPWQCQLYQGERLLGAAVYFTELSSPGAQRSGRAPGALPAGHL

[7] = target: T6, cynomolgus LAG3 on transiently transfected HEK293F cells (cynomolgus); experiment: flow cytometry on HEK293F cells transfected with cyno LAG3, 10 µg/ml
T6 construct: whole, on cells; also called cyno LAG3; cynomolgus Lag3-positive HEK cells

[8] = target: T5, recombinant human LAG3 Fc Chimera …; experiment: SPR (Biacore), aVH-Fc captured by anti-human Fc, human LAG-3 Fc chimera as analyte, 25 C
[9] = target: T7, soluble human Lag3-IgG1-Fc with biotinylated C-terminal Avi-tag (human, biotin on the C-terminal Avi-tag); experiment: A375 MHCII competition ELISA, biotinylated Lag3 250 ng/ml; competitor MHCII on A375 cells
T7 construct: also called LAG3-Fc-avi; biotinylated LAG3-Fc antigen

[10] = target: T7, soluble human Lag3-IgG1-Fc with …; experiment: A375 MHCII competition ELISA at 3 µg/ml, biotinylated Lag3 250 ng/ml; competitor MHCII on A375 cells

| Binder | Kd [1] [nM] | koff [1] [s⁻¹] | kon [1] [M⁻¹ s⁻¹] | EC50 of restoration of the NFAT luciferase signal (NFAT Lag3 reporter assay: Lag3+ Jurkat, Raji cells, SED) [2] [µg/mL] | IC50 for near-complete reduction of luciferase activity (modified NFAT Lag3 reporter assay, Lag3+ Jurkat cells alone) [3] [µg/mL] | binding result [4] | EC50 [5] | OD max [5] [OD] | EC50 [6] | OD max [6] [OD] | LAG3 positive cells (%) [7] [%] | Signal intensity (Geo Mean) [7] [Geo Mean] | koff [8] [s⁻¹] | t1/2 [8] [min] | IC50 [9] | % Inhibition [10] [%] |
| --- | --- | --- | --- | --- | --- | --- | --- | --- | --- | --- | --- | --- | --- | --- | --- | --- |
| MCSP-specific disulfide-stabilized aVH clone 44 (VHH, Autonomous human VH domain purified from E. coli) VHH: EVQLVESGGGLVQPGGSLRLSCAASGFNIKDGYIDWVRRAPGKGTELVASIECTNGRATRYADSVKGRFTISCDTSKNTAYLQMNSLRAEDTAVYYCAYAGIGYYFYYWGQGTTVTVSS | 109 | 0.0163 | 150000 |  |  |  |  |  |  |  |  |  |  |  |  |  |
| MCSP-specific disulfide-stabilized aVH clone 2 (VHH, Autonomous human VH domain purified from E. coli by IMAC) VHH: EVQLVESGGGLVQPGGSLRLSCAASSFNIKDTYIGWVRRAPGKGTELVASIDCIYGYTRYADSVKGRFTISCDTSKNTAYLQMNSLRAEDTAVYYCAAQGYRLHYWGQGTTVTVSS | 8 | 0.00339 | 458000 |  |  |  |  |  |  |  |  |  |  |  |  |  |
| MCSP-specific disulfide-stabilized aVH clone 57.1 (VHH, Autonomous human VH domain purified from E. coli) VHH: EVQLVESGGGLVQPGGSLRLSCAASGFNIKQNCIEWVRRAPGKGTELVANICHDIGSTRYADSVKGRFTISADTSKNTAYLQMNSLRAEDTAVYYCAAWEQKGFNYWGQGTTVTVSS | 48 | 0.0142 | 295000 |  |  |  |  |  |  |  |  |  |  |  |  |  |
| bivalent 21B11 aVH-Fc (Fc fusion) EVQLVESGGGLVQPGGSLRLSCAASGFNIKDTCIGWVRRAPGKGTELVAEICQDIGYTRYADSVKGRFTISADTSKNTAYLQMNSLRAEDTAVYYCAADESVDNFKYWGQGTTVTVSSGGGGSGGGGSDKTHTCPPCPAPEAAGGPSVFLFPPKPKDTLMISRTPEVTCVVVDVSHEDPEVKFNWYVDGVEVHNAKTKPREEQYNSTYRVVSVLTVLHQDWLNGKEYKCKVSNKALGAPIEKTISKAKGQPREPQVYTLPPSRDELTKNQVSLTCLVKGFYPSDIAVEWESNGQPENNYKTTPPVLDSDGSFFLYSKLTVDKSRWQQGNVFSCSVMHEALHNHYTQKSLSLSPGK |  |  |  | 0.6 | 0.064 | no binding | 0.0428 µg/mL and 0.6 nM | 1.3 | 0.0157 µg/mL and 0.2 nM | 1.1 | 78.9 | 2750 | 1.8e-05 | 107 | 0.113 µg/mL and 1.5 nM | 96.7 |
| bivalent 9B4 aVH-Fc (Fc fusion) EVQLVESGGGLVQPGGSLRLSCAASGFNIKDTCIGWVRRAPGKGTELVAEICQDIGYTRYADSVKGRFTISADTSKNTAYLQMNSLRAEDTAVYYCAAVEVAEYFEYWGQGTTVTVSSGGGGSGGGGSDKTHTCPPCPAPEAAGGPSVFLFPPKPKDTLMISRTPEVTCVVVDVSHEDPEVKFNWYVDGVEVHNAKTKPREEQYNSTYRVVSVLTVLHQDWLNGKEYKCKVSNKALGAPIEKTISKAKGQPREPQVYTLPPSRDELTKNQVSLTCLVKGFYPSDIAVEWESNGQPENNYKTTPPVLDSDGSFFLYSKLTVDKSRWQQGNVFSCSVMHEALHNHYTQKSLSLSPGK |  |  |  |  |  | no binding | 0.0288 µg/mL and 0.4 nM | 1.3 | 0.0194 µg/mL and 0.3 nM | 1.2 | 68.8 | 2060 | 0.00019 | 61.1 | 0.0762 µg/mL and 1 nM | 95.5 |
| bivalent 17D7 aVH-Fc (Fc fusion) EVQLVESGGGLVQPGGSLRLSCAASGFNIKDTCIGWVRRAPGKGTELVAEICTDIGYTRYADSVKGRFTISADTSKNTAYLQMNSLRAEDTAVYYCAAGEGSSGFHYWGQGTTVTVSSGGGGSGGGGSDKTHTCPPCPAPEAAGGPSVFLFPPKPKDTLMISRTPEVTCVVVDVSHEDPEVKFNWYVDGVEVHNAKTKPREEQYNSTYRVVSVLTVLHQDWLNGKEYKCKVSNKALGAPIEKTISKAKGQPREPQVYTLPPSRDELTKNQVSLTCLVKGFYPSDIAVEWESNGQPENNYKTTPPVLDSDGSFFLYSKLTVDKSRWQQGNVFSCSVMHEALHNHYTQKSLSLSPGK |  |  |  |  |  | no binding | 0.0354 µg/mL and 0.5 nM | 1.4 | 0.0145 µg/mL and 0.2 nM | 1.2 | 63.6 | 1980 | 0.00018 | 65.9 | 0.104 µg/mL and 1.4 nM | 91.7 |
| bivalent P10C3 aVH-Fc (Fc fusion) EVQLVESGGGLVQPGGSLRLSCAASGFNIKDTCIGWVRRAPGKGTELVAEICTDAGYTRYADSVKGRFTISADTSKNTAYLQMNSLRAEDTAVYYCAASESPSGFRYWGQGTTVTVSSGGGGSGGGGSDKTHTCPPCPAPEAAGGPSVFLFPPKPKDTLMISRTPEVTCVVVDVSHEDPEVKFNWYVDGVEVHNAKTKPREEQYNSTYRVVSVLTVLHQDWLNGKEYKCKVSNKALGAPIEKTISKAKGQPREPQVYTLPPSRDELTKNQVSLTCLVKGFYPSDIAVEWESNGQPENNYKTTPPVLDSDGSFFLYSKLTVDKSRWQQGNVFSCSVMHEALHNHYTQKSLSLSPGK |  |  |  | 3.9 |  | no binding | 0.0735 µg/mL and 1 nM | 1.2 | 0.123 µg/mL and 1.6 nM | 0.8 |  |  | 8.9e-05 | 130 | 0.242 µg/mL and 3.2 nM | 84.9 |
